Measured values taken from the supplement of paper PMC10201428.
± gives the standard deviation of the averaged measurements.

Columns and labels:
[1] = test system: VchCAST RNA-guided transposition machinery (E. coli BL21(DE3) host, lacZ target); experiment: relative integration efficiency (T-RL orientation) vs wild-type transposon end (log2 (normalized fold change)); transposon end mutated: right end (5 bp flank + 75 bp right end); higher = more efficient transposition
Procedure, shortened: (§1)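 Barcode abundances in input plasmids and in genomic integration junctions were obtained by PCR amplification and Illumina sequencing. These came from E. coli BL21(DE3) co-transformed with a T7-driven effector plasmid and a pUC57 donor carrying 1549 left-end or 1849 right-end transposon variants, then plated with 0.1 mM IPTG at 37°C for 18 h. Relative integration efficiency is the output/input fold change, normalised to reference barcodes and log-transformed.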

[2] = test system: VchCAST RNA-guided transposition machinery (E. coli BL21(DE3) host, lacZ target); experiment: relative integration efficiency (T-LR orientation) vs wild-type transposon end (log2 (normalized fold change)); transposon end mutated: right end (5 bp flank + 75 bp right end); higher = more efficient transposition
Procedure, shortened: as §1

## ACATTTGTTGATACAACCATAAAATGATAATTACACCCATAAATTGATAATTATCAACAAACGCCCGGTCGCGGTACTCTGATCATAGTCAGACCAACATTGCTACGACCCGTATTCGCACCGACAC
[1]
  relative integration efficiency (log2): -0.287 ± 0.0067
[2]
  relative integration efficiency (log2): 2.66 ± 0.038

## ACATTTGTTGATACAACCATAAAATGATAATTACACCCATAAATTGATAATTATCAACAACATAAATTGATATTGCCTCTGATCATAGTCAGACCAACATTGCTACGACCCGTATTCGCACCGACAC
[1]
  relative integration efficiency (log2): -0.911 ± 0.21
[2]
  relative integration efficiency (log2): 1.36 ± 0.2

## ACATTTGTTGATACAACCATAAAATGATAATTACACCCATAAATTGATAATTATCAACACCCATAAATTGATATTGCCTCTGATCATAGTCAGACCAACATTGCTACGACCCGTATTCGCACCGACA
[1]
  relative integration efficiency (log2): -0.35 ± 0.052
[2]
  relative integration efficiency (log2): 0.619 ± 0.036

## ACATTTGTTGATACAACCATAAAATGATAATTACACCCATAAATTGATAATTATCAACCCCATAAATTGATATTGCCTCTGATCATAGTCAGACCAACATTGCTACGACCCGTATTCGCACCGACAC
[1]
  relative integration efficiency (log2): -0.731 ± 0.18
[2]
  relative integration efficiency (log2): 1.26 ± 0.17

## ACATTTGTTGATACAACCATAAAATGATAATTACACCCATAAATTGATAATTATCACAAAACGCCCGGTCGCGGTAAGAGGATCATAGTCAGACCAACATTGCTACGACCCGTATTCGCACCGACAC
[1]
  relative integration efficiency (log2): -0.437 ± 0.16
[2]
  relative integration efficiency (log2): 2.81 ± 0.094

## ACATTTGTTGATACAACCATAAAATGATAATTACACCCATAAATTGATAATTATCACAAAACTAAATTGATATTGCCTCTGATCATAGTCAGACCAACATTGCTACGACCCGTATTCGCACCGACAC
[1]
  relative integration efficiency (log2): -0.531 ± 0.15
[2]
  relative integration efficiency (log2): 2.45 ± 0.22

## ACATTTGTTGATACAACCATAAAATGATAATTACACCCATAAATTGATAATTATCACAAACATAAATTGATATTGCCTCTGATCATAGTCAGACCAACATTGCTACGACCCGTATTCGCACCGACAC
[1]
  relative integration efficiency (log2): -0.114 ± 0.033
[2]
  relative integration efficiency (log2): 0.898 ± 0.13

## ACATTTGTTGATACAACCATAAAATGATAATTACACCCATAAATTGATAATTATCACACAAATAAATTGATATTGCCTCTGATCATAGTCAGACCAACATTGCTACGACCCGTATTCGCACCGACAC
[1]
  relative integration efficiency (log2): -1.11 ± 0.18
[2]
  relative integration efficiency (log2): 2.06 ± 0.028

## ACATTTGTTGATACAACCATAAAATGATAATTACACCCATAAATTGATAATTATCACACAACGAAATTGATATTGCCTCTGATCATAGTCAGACCAACATTGCTACGACCCGTATTCGCACCGACAC
[1]
  relative integration efficiency (log2): -0.936 ± 0.18
[2]
  relative integration efficiency (log2): 2.18 ± 0.14

## ACATTTGTTGATACAACCATAAAATGATAATTACACCCATAAATTGATAATTATCACACAACGCCCGGTCGCGGTAAGAGGATCATAGTCAGACCAACATTGCTACGACCCGTATTCGCACCGACAC
[1]
  relative integration efficiency (log2): -0.696 ± 0.091
[2]
  relative integration efficiency (log2): 2.32 ± 0.24

## ACATTTGTTGATACAACCATAAAATGATAATTACACCCATAAATTGATAATTATCACACCACGCAATTGATATTGCCTCTGATCATAGTCAGACCAACATTGCTACGACCCGTATTCGCACCGACAC
[1]
  relative integration efficiency (log2): -0.677 ± 0.11
[2]
  relative integration efficiency (log2): 2.1 ± 0.088

## ACATTTGTTGATACAACCATAAAATGATAATTACACCCATAAATTGATAATTATCACACCACGCCCGGTCGCGGTAAGAGGATCATAGTCAGACCAACATTGCTACGACCCGTATTCGCACCGACAC
[1]
  relative integration efficiency (log2): -0.546 ± 0.089
[2]
  relative integration efficiency (log2): 2.46 ± 0.034

## ACATTTGTTGATACAACCATAAAATGATAATTACACCCATAAATTGATAATTATCACACCACTAAATTGATATTGCCTCTGATCATAGTCAGACCAACATTGCTACGACCCGTATTCGCACCGACAC
[1]
  relative integration efficiency (log2): -0.503 ± 0.044
[2]
  relative integration efficiency (log2): 2.35 ± 0.27

## ACATTTGTTGATACAACCATAAAATGATAATTACACCCATAAATTGATAATTATCACACCCAGCCCGGTCGCGGTAAGAGGATCATAGTCAGACCAACATTGCTACGACCCGTATTCGCACCGACAC
[1]
  relative integration efficiency (log2): -0.344 ± 0.16
[2]
  relative integration efficiency (log2): 2.65 ± 0.059

## ACATTTGTTGATACAACCATAAAATGATAATTACACCCATAAATTGATAATTATCACACCCATAAAGGTCGCGGTAAGAGGATCATAGTCAGACCAACATTGCTACGACCCGTATTCGCACCGACAC
[1]
  relative integration efficiency (log2): -0.82 ± 0.057
[2]
  relative integration efficiency (log2): 2.16 ± 0.14

## ACATTTGTTGATACAACCATAAAATGATAATTACACCCATAAATTGATAATTATCACACCCATAAATGTCGCGGTAAGAGGATCATAGTCAGACCAACATTGCTACGACCCGTATTCGCACCGACAC
[1]
  relative integration efficiency (log2): -0.671 ± 0.0087
[2]
  relative integration efficiency (log2): 2.19 ± 0.15

## ACATTTGTTGATACAACCATAAAATGATAATTACACCCATAAATTGATAATTATCACACCCATAAATTGAGCGGTAAGAGGATCATAGTCAGACCAACATTGCTACGACCCGTATTCGCACCGACAC
[1]
  relative integration efficiency (log2): -0.428 ± 0.035
[2]
  relative integration efficiency (log2): 1.6 ± 0.023

## ACATTTGTTGATACAACCATAAAATGATAATTACACCCATAAATTGATAATTATCACACCCATAAATTGATACTCTGATCATAGTCAGACCAACATTGCTACGACCCGTATTCGCACCGACACTGAC
[1]
  relative integration efficiency (log2): 0.0156 ± 0.031
[2]
  relative integration efficiency (log2): 0.201 ± 0.14

## ACATTTGTTGATACAACCATAAAATGATAATTACACCCATAAATTGATAATTATCACACCCATAAATTGATAGGTAAGAGGATCATAGTCAGACCAACATTGCTACGACCCGTATTCGCACCGACAC
[1]
  relative integration efficiency (log2): -0.281 ± 0.02
[2]
  relative integration efficiency (log2): 0.884 ± 0.061

## ACATTTGTTGATACAACCATAAAATGATAATTACACCCATAAATTGATAATTATCACACCCATAAATTGATATCTCTGATCATAGTCAGACCAACATTGCTACGACCCGTATTCGCACCGACACTGA
[1]
  relative integration efficiency (log2): -0.049 ± 0.013
[2]
  relative integration efficiency (log2): -0.209 ± 0.13

## ACATTTGTTGATACAACCATAAAATGATAATTACACCCATAAATTGATAATTATCACACCCATAAATTGATATGTAAGAGGATCATAGTCAGACCAACATTGCTACGACCCGTATTCGCACCGACAC
[1]
  relative integration efficiency (log2): -0.111 ± 0.0046
[2]
  relative integration efficiency (log2): 0.00487 ± 0.23

## ACATTTGTTGATACAACCATAAAATGATAATTACACCCATAAATTGATAATTATCACACCCATAAATTGATATTCGGACTGATCATAGTCAGACCAACATTGCTACGACCCGTATTCGCACCGACAC
[1]
  relative integration efficiency (log2): -0.0234 ± 0.0045
[2]
  relative integration efficiency (log2): 0.106 ± 0.13

## ACATTTGTTGATACAACCATAAAATGATAATTACACCCATAAATTGATAATTATCACACCCATAAATTGATATTCTCTGATCATAGTCAGACCAACATTGCTACGACCCGTATTCGCACCGACACTG
[1]
  relative integration efficiency (log2): -0.0876 ± 0.015
[2]
  relative integration efficiency (log2): -0.29 ± 0.067

## ACATTTGTTGATACAACCATAAAATGATAATTACACCCATAAATTGATAATTATCACACCCATAAATTGATATTGAAGAGGATCATAGTCAGACCAACATTGCTACGACCCGTATTCGCACCGACAC
[1]
  relative integration efficiency (log2): -0.00509 ± 0.15
[2]
  relative integration efficiency (log2): -0.000932 ± 0.33

## ACATTTGTTGATACAACCATAAAATGATAATTACACCCATAAATTGATAATTATCACACCCATAAATTGATATTGAAGATGATCATAGTCAGACCAACATTGCTACGACCCGTATTCGCACCGACAC
[1]
  relative integration efficiency (log2): 0.3393 ± 0.002
[2]
  relative integration efficiency (log2): 0.0825 ± 0.095

## ACATTTGTTGATACAACCATAAAATGATAATTACACCCATAAATTGATAATTATCACACCCATAAATTGATATTGCAGAGGATCATAGTCAGACCAACATTGCTACGACCCGTATTCGCACCGACAC
[1]
  relative integration efficiency (log2): 0.0202 ± 0.033
[2]
  relative integration efficiency (log2): -0.044 ± 0.11

## ACATTTGTTGATACAACCATAAAATGATAATTACACCCATAAATTGATAATTATCACACCCATAAATTGATATTGCAGCTGATCATAGTCAGACCAACATTGCTACGACCCGTATTCGCACCGACAC
[1]
  relative integration efficiency (log2): 0.131 ± 0.028
[2]
  relative integration efficiency (log2): 0.0166 ± 0.64

## ACATTTGTTGATACAACCATAAAATGATAATTACACCCATAAATTGATAATTATCACACCCATAAATTGATATTGCCAACCATAAAATGATAATTACTCTGATCATAGTCAGACCAAGCACCGACAC
[1]
  relative integration efficiency (log2): -1.11 ± 0.39
[2]
  relative integration efficiency (log2): -0.138 ± 0.05

## ACATTTGTTGATACAACCATAAAATGATAATTACACCCATAAATTGATAATTATCACACCCATAAATTGATATTGCCAGTGATCATAGTCAGACCAACATTGCTACGACCCGTATTCGCACCGACAC
[1]
  relative integration efficiency (log2): -0.39 ± 0.14
[2]
  relative integration efficiency (log2): -0.53 ± 0.12

## ACATTTGTTGATACAACCATAAAATGATAATTACACCCATAAATTGATAATTATCACACCCATAAATTGATATTGCCCAACCATAAAATGATAATTATCTGATCATAGTCAGACCAAGCACCGACAC
[1]
  relative integration efficiency (log2): -0.0286 ± 0.28
[2]
  relative integration efficiency (log2): -0.886 ± 0.6

## ACATTTGTTGATACAACCATAAAATGATAATTACACCCATAAATTGATAATTATCACACCCATAAATTGATATTGCCGAGGATCATAGTCAGACCAACATTGCTACGACCCGTATTCGCACCGACAC
[1]
  relative integration efficiency (log2): 0.325 ± 0.077
[2]
  relative integration efficiency (log2): 0.294 ± 0.46

## ACATTTGTTGATACAACCATAAAATGATAATTACACCCATAAATTGATAATTATCACACCCATAAATTGATATTGCCGATGATCATAGTCAGACCAACATTGCTACGACCCGTATTCGCACCGACAC
[1]
  relative integration efficiency (log2): 0.336 ± 0.0049
[2]
  relative integration efficiency (log2): 0.0792 ± 0.085

## ACATTTGTTGATACAACCATAAAATGATAATTACACCCATAAATTGATAATTATCACACCCATAAATTGATATTGCCTAGGATCATAGTCAGACCAACATTGCTACGACCCGTATTCGCACCGACAC
[1]
  relative integration efficiency (log2): 0.0464 ± 0.076
[2]
  relative integration efficiency (log2): 0.23 ± 0.42

## ACATTTGTTGATACAACCATAAAATGATAATTACACCCATAAATTGATAATTATCACACCCATAAATTGATATTGCCTCAACCATAAAATGATAATTACTGATCATAGTCAGACCAAGCACCGACAC
[1]
  relative integration efficiency (log2): -0.275 ± 0.21
[2]
  relative integration efficiency (log2): -1.08 ± 0.72

## ACATTTGTTGATACAACCATAAAATGATAATTACACCCATAAATTGATAATTATCACACCCATAAATTGATATTGCCTCCAACCATAAAATGATAATTATGATCATAGTCAGACCAAGCACCGACAC
[1]
  relative integration efficiency (log2): -0.0389 ± 0.26
[2]
  relative integration efficiency (log2): -0.77 ± 0.082
